From US20220213176A1
Read-outs that look alike come from different tables or passages of the source.

Key:
Settings in all cases: remark: other sources report otherwise
[1] = biological target: full-length SARS-CoV-2 spike (SARS-CoV-2), P0DTC2
[2] = biological target: N501Y S-RBD (SARS-CoV-2), P0DTC2; assay: BLI (Octet), N501Y S-RBD amine-coupled on AR2G sensor, 1:1 binding model
[3] = biological target: T1, SARS-CoV-2 spike receptor binding domain, wild-type (S-RBD) (SARS-CoV-2), P0DTC2; assay: BLI (Octet), S-RBD amine coupled on AR2G sensor, IgG4 in solution, 1:1 fit
[4] = biological target: SARS-CoV-2 spike E484K+N501Y+D614G (SARS-CoV-2), P0DTC2; assay: FACS MFI on transfected HEK293T cells, against D614G spike (mut 3)
[5] = biological target: T2, SARS-CoV-2 spike K417N+E484K+N501Y+D614G (SARS-CoV-2), P0DTC2; assay: as above
[6] = biological target: N501Y S-RBD (SARS-CoV-2), P0DTC2; assay: BLI (Octet), N501Y S-RBD amine coupled on AR2G sensor, 1:1 fit
[7] = biological target: T1, SARS-CoV-2 spike receptor binding …
[8] = biological target: SARS-CoV-2 spike D215H (SARS-CoV-2), P0DTC2
[9] = biological target: SARS-CoV-2 spike K417N+N501Y+D614G (SARS-CoV-2), P0DTC2
[10] = biological target: SARS-CoV-2 spike D614G (SARS-CoV-2), P0DTC2
[11] = biological target: SARS-CoV-2 spike N439K+D614G (SARS-CoV-2), P0DTC2
[12] = biological target: SARS-CoV-2 spike E484K+N501Y+D614G (SARS-CoV-2), P0DTC2
[13] = biological target: SARS-CoV-2 spike S247R (SARS-CoV-2), P0DTC2
[14] = biological target: T2, SARS-CoV-2 spike …
[15] = biological target: SARS-CoV-2 spike N501Y+D614G (SARS-CoV-2), P0DTC2
[16] = biological target: N501Y S-RBD (SARS-CoV-2), P0DTC2
[17] = biological target: T1, SARS-CoV-2 spike receptor binding …; assay: BLI (Octet), S-RBD amine-coupled on AR2G sensor, 1:1 binding model [cont'd) h]
[18] = biological target: T1, SARS-CoV-2 spike receptor binding …; assay: BLI (Octet), biotinylated S-RBD on SA sensor, IgG4 in solution, 1:1 fit
[19] = biological target: B.1.351 S-RBD (SARS-CoV-2), P0DTC2; assay: BLI (Octet RED96), biotin B.1.351 S-RBD on SA sensor, 1:1 fit
[20] = biological target: T1, SARS-CoV-2 spike receptor binding …; assay: BLI (Octet RED96), biotinylated WT S-RBD on SA biosensor, 1:1 binding model
[21] = biological target: N501Y S-RBD (SARS-CoV-2), P0DTC2; assay: BLI (Octet), biotinylated N501Y S-RBD on SA sensor, 1:1 fit
[22] = biological target: N501Y S-RBD (SARS-CoV-2), P0DTC2; assay: BLI (Octet), biotinylated N501Y S-RBD on SA biosensor, 1:1 binding model
[23] = biological target: B.1.351 S-RBD (SARS-CoV-2), P0DTC2; assay: BLI (Octet RED96), biotinylated B.1.351 S-RBD on SA biosensor, 1:1 binding model
[24] = biological target: T1, SARS-CoV-2 spike receptor binding …; assay: BLI (Octet RED96), biotin S-RBD on SA sensor, 1:1 fit; dimer S-E6, WT S-RBD
[25] = biological target: T1, SARS-CoV-2 spike receptor binding …; assay: BLI (Octet), biotinylated S-RBD on SA biosensor, 1:1 binding model [cont'd) h]

Row | Binder | MFI [1] | IC50 [7] [nM] | MFI [8] | MFI [9] | MFI [10] | MFI [11] | MFI [12] | MFI [13] | MFI [14] | MFI [15] | koff [16] [s⁻¹] | kon [16] [M⁻¹ s⁻¹] | also measured
1 | S-D4 (antibody, V domains shown) VH: QVQLQESGGGVVQPGRSLRLSCEVSGFTFSDYGMHWVRQAPGKGLEWVAVIWSEGSTEYYADSVKGRFTISRDNSKDTLYLQMNSLRAEDTAVYYCARPGYPTSTDRSPAAAGARQYYYYGMDVWGQGTTVTVSS VL: NFMLTQPHSVSESPGKTVTISCTRSGGSGAANYVQWYQQRPGSSPTTLIYEDSRRPPGVPDRFSGSVDTSSNSASLTISGLQTEDEADYYCQSYDSSNHVVFGGGTKLTVLG | 43000 | 7.1 | 411000 | 155000 | 414000 | 360000 | 138000 | 335000 | 147000 | 281000 | 4.2e-05 | 440000 | koff [2]: 4.2e-05 s⁻¹; kon [2]: 440000 M⁻¹ s⁻¹; Kd [3]: 0.12 nM; MFI as percent of mut 3 [4]: 33.2 % of mut 3; MFI as percent of mut 3 [5]: 35.6 % of mut 3; Kd [6]: 0.097 nM; koff [17]: 4.6e-05 s⁻¹; kon [17]: 390000 M⁻¹ s⁻¹
2 | S-E6 (antibody, V domains shown) VH: QVTLRESGPGLVKPSETLSLTCAVSGGSLSSVNYYWSWIRQHPGKGLEWIGYIYYSGSTNYNPSLKSRVTMSLDTSKNQFSLKLSSVTAADTAVYYCATPGAIMGALHIWGQGTLVTVSS VL: QAVLTQPSSASSTPGQRVIISCSGSSSNIGSNTVSWYQQVPGAAPKLLIYFDYRRPSGVPDRFSGTRSGTSASLGISGLQSEDEADYYCAAWDDSLSAWVFGRGTKLTVLG | 18200 | 12.2 | 135000 | 312000 | 157000 | 133000 | 139000 | 109000 | 141000 | 153000 | 0.00025 | 1.2e+06 | Kd [18]: 0.11 nM; Kd [19]: 1.58 nM; koff [20]: 3.37e-05 s⁻¹; kon [20]: 403000 M⁻¹ s⁻¹; Kd [21]: 0.21 nM; koff [22]: 0.00025 s⁻¹; kon [22]: 1.2e+06 M⁻¹ s⁻¹; Kd [23]: 1.58 nM; koff [23]: 0.000915 s⁻¹; kon [23]: 581000 M⁻¹ s⁻¹; Kd [24]: 0.0836 nM; koff [25]: 0.00013 s⁻¹; kon [25]: 1.2e+06 M⁻¹ s⁻¹
